Data taken from patent US20230312678A1.
Like-named read-outs stand apart in the source and are kept apart here.

Legend:
[1] = target: ED-tagged full-length PD-1 receptor stably expressed in Jurkat cells (PathHunter PD-1 Signaling Bioassay, DiscoverX) (UniProt Q15116); assay: cell-based or functional assay
[2] = target: ED-tagged full-length PD-1 receptor stably expressed in Jurkat cells (PathHunter PD-1 Signaling Bioassay, DiscoverX) (UniProt Q15116); assay: cell-based or functional assay; remark: listed apart in the source

Sequence of UniProt Q15116 (Q15116 25-288): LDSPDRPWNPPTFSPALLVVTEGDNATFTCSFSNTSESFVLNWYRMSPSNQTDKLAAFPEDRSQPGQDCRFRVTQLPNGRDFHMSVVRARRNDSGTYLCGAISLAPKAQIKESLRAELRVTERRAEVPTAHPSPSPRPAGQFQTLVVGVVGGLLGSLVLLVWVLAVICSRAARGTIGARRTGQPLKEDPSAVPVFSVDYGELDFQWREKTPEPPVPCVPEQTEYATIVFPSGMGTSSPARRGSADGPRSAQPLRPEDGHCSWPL

Substance	Relative Light Units (RLU), modified PathHunter PD-1 Signaling Bioassay; fold against soluble PD-L1-Fc [1] [fold]	Relative Light Units (RLU), modified PathHunter PD-1 Signaling Bioassay; fold against soluble PD-L1-Fc [2] [fold]	Relative Light Units (RLU), modified PathHunter PD-1 Signaling Bioassay; fold against soluble PD-L2-Fc [1] [fold]	Relative Light Units (RLU), modified PathHunter PD-1 Signaling Bioassay; fold against soluble PD-L2-Fc [2] [fold]
hPD-L1-Fc-GPI artificial synapses engineered from exosomes (hPDL1-Fc-GPI fusion polypeptide displayed on the exosome surface) (Fc fusion)	10000	1000		
hPD-L2-Fc-GPI artificial synapses engineered from exosomes (hPDL2-Fc-GPI fusion polypeptide displayed on the exosome surface) (Fc fusion)			10000	1000
